Source: the supplement of paper PMC12764529
± gives the half width of the 95% confidence interval.

Test: folding stability dG unfold from chymotrypsin proteolysis; higher = more stable
How it was run: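 Only designs with AlphaFold2 dimer inter-PAE above 15 were retained; each was a mini-protein under 80 residues with no cysteine, in a PA-tagged cDNA display construct. After digestion with trypsin and chymotrypsin and sequencing, K50 was inferred by Bayesian fitting of counts, and unfolding free energy was derived per protease or combined against a sequence-predicted unfolded-state K50 and a shared folded-state K50.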

Sequence	folding stability dG unfold [kcal/mol]
SAGGSAGGSGGMTPTSRDYVLPNGEKLAVEETFTFPDGSSVTKVLDPKTGTTTTLPASTIASASAGGSAGGS [r12_488_JUSTAS]	0.321 ± 0.13
SAGGSAGGMVKLKVYKIPESVPPELRALLEALVEGEGEVEVEPEEAEALLKLPGIEELEVEELESAGGSAGG [r6_381_TrMRF]	1.84 ± 0.059
SAGGGHMVNVTLTGSSIEEIKKELEELAKKYGFVINPKKVEKLPGPKYKITLNIKAPDEVVELIKKKSAGGS [r8_357_JUSTAS]	2.16 ± 0.053
SAGGKKVIITKVETNKNGKKTYTVTLYYKDKKTNEWKKVAEFTFESKEEAENAAKELAKKLNLKIIPSAGGS [r16_512_TrROS_Hall]	5 ± 0.088
SAIKIEEIKDVNPENKNIRIKIEMPGGPHEIPIPAKSEMDVEEALDLILDWFERHFPPGHKMRIEEIEISAG [r14_422_TrROS]	-0.0828 ± 0.13
SATPYTFTLPDGYVIPAYKLPDGTVRVTAQYYDPVDRKPVGTYEATADPTDGTIELTFPNGDKATITLPDSA [r9_56_TrMRF]	1.01 ± 0.1
SAGGSAGGSMKLVTVKMKRPNGPVELTPVLPVDPSETLEEVKERVLELYPGAEITEITVTPDESAGGSAGGS [r12_738_JUSTAS]	0.708 ± 0.15
SAGGSAGGSAGSPMSAEEVEERLREELRRELGPDYTVTVTVTEVLPEGVYVVSVTVTGPASAGGSAGGSAGG [r11_153_JUSTAS]	1.96 ± 0.028
SMRVVLVRPVPPELKEAELELRLPLPDGSEVEVKAETGEDFVVVTIELDDESAAEAVVEELEKLLEELLGSA [r9_790_TrMRF]	1.17 ± 0.034
SAGGSAGGSAGGLVPPDAVIPTETTAEEPVYVIDPVTGELTPIGPGVVRRKITRRVPRPSAGGSAGGSAGGS [r10_1115_JUSTAS]	0.863 ± 0.056
SSWEKLSTLTLPSTGLTVTFYYDPSTNSTAVKVTDGAGPELSEKVLSDDETFTLPDGVSIKLPKGAEPASSA [r9_340_JUSTAS]	1.45 ± 0.077
SAEVELKPDEELEFEFPDSQVKISYVPGTGVITTTTTFTTPDGTVVYKTTTIKKEGKEVTSTTVSLAEASSA [r9_881_JUSTAS]	1.52 ± 0.067
SAGGSAGGMKKYKMTITFKTPDGTPVKEKTIYFNSEEEAKKAAEEIKKKELEPDTPVTVSKEPDSAGGSAGG [r6_286_JUSTAS]	1.13 ± 0.071
SAGGSAGGSAAITIPVPPGETVTIKIEIEMTVPPNQRNPDGQRMKPGQKVRMEVTFTFRVDGSAGGSAGGSA [r18_450_TrROS]	4.63 ± 0.058
SAGGMRLVFVTETPEEAEEIARELAELFPDFELEAEVREEEVLVEVPETGEVKRRPVYVLVIELRPKSAGGS [r16_828_TrMRF]	4.42 ± 0.059
SAGGSAGGSAGGTAEIYFPNFPIRIDSVQLSPEKNHVQVSMENPDGPPVKGTMPPKDGILSAGGSAGGSAGG [r7_427_TrROS]	-0.127 ± 0.027

Sequence	folding stability dG unfold [kcal/mol]
SAGPMTLEILYKRPANEPFTLEDLELAKEVEEAVAALVPSKYKVRIKSIEYEKYPDYYYIRVTIEVEKPSAG [r5_121_TrMRF]	4.71 ± 0.061
SAGGSAGGSETRVLVRPLDGAIVIEAYRRLPDGSWVLAERIVIPTKGDDPESIARAQEVIDKLSAGGSAGGS [r12_169_TrMRF]	4.67 ± 0.087
SMSEKVEIDPAAIAEALKAGTEYEFDIKVTVTLFDPSNGKKVSTEEKVVKVKLKIPPPSPLPDPKNGYLLSA [r9_396_JUSTAS]	1.4 ± 0.079
KKKIKKIEIEIKIPVKSIEEAKEEVEKLAKELKEKFPEIKKIKVEIIKYDEKKGYITVKITIEVNGKKIEFS [r1_52_TrROS_Hall]	1.24 ± 0.13
SAGGSAGGKIRVEVEVEPLPGPEEGGRLLRVRVRVYNENGELLEEIEFPARSPEEAEERLRKAASAGGSAGG [r6_974_TrMRF]	3.46 ± 0.082
SAGGSAGGSKMLLVKVYVPEFDTVVVFEAPRDITIEEIEERLREAGFSVARIEVVEFDLPEGGSAGGSAGGS [r12_955_TrMRF]	3.766 ± 0.022
SAGGSAGGSASSMVKPEKLPNGEKVVVTTETVPDPNSDTPVTVVTTEIYKGDKIVEVKTTLVSAGGSAGGSA [r18_185_JUSTAS]	0.384 ± 0.12
SAGMVTLRVKLKDGRELEIQLASEEEIESLPPGAKVIPIPAESEEEALEAAARLLAEEEGLEIEEVEKVSAG [r5_119_TrROS_Hall]	0.564 ± 0.074
SAGGSAGGSAGGMKVIKIEDVEKVKAEAKKNGIKVTYKKENDGEIIAYIEKIPKSIKNKSAGGSAGGSAGGS [r10_218_JUSTAS]	0.449 ± 0.14
SAGGSAGGSAGEPKLILVEVEGYPDPESNLVYVEFPNGDIATFAVDSAAPDQPVLVLVNPSAGGSAGGSAGG [r11_621_TrMRF]	-0.0185 ± 0.065
SFGMIEIENEAFLPDGFRFKVEVWVMVDPDNGNLMIMLDIEIEPIPPPPPPPEPKPVKDKNGDWKPANDMSA [r9_898_TrROS]	3.79 ± 0.14
SFTPEQVKDIAKTIANRMYDNGYEVEVDVEVEPVNNMPYVEIEFEWRDPDGQPWKFEIIIHPDGDIEIYPSA [r9_1027_TrROS]	2.7 ± 0.065
SAGGSAGGSAGEEKETLTLVLPLEDMSPEEIAKLLEAAGYKVTVEEKDGLLVVKIERKPPSAGGSAGGSAGG [r11_707_TrROS_Hall]	2.855 ± 0.017
SAGGKLPKLPPGQIEIMDFQIEPDPDGRYKMSFMITITAPDNGKKVVVMLEMWMPPDGEMKTGIGIMPSAGG [r13_263_TrROS]	2.85 ± 0.15
SAGGMEPPPMLLLVIEIENEDGEKLRIVVPLEDLEEVLKALGLSKEEVRIKKIEVVPLTDEQLKELLESAGG [r13_850_TrROS_Hall]	3.57 ± 0.25
